Test results taken from patent publication US20130315910A1 (Xencor, published 2013).
Substitutions are numbered along the chain they refer to. Numbers in names are those of the source.

T1: human FcγRIIb receptor protein (R&D Systems) (human, UniProt P31994 46-217)
T1 construct: Bought protein injected over captured antibody in Biacore; also called CD32b
T1 sequence (looked up): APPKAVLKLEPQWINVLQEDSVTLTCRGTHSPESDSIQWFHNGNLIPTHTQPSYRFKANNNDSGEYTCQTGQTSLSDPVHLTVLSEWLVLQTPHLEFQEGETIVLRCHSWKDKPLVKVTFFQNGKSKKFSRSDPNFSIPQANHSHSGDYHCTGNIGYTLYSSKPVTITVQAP

T2: human FcγRIIa (131R), His- and GST-tagged (human, UniProt P12318 34-217)
T2 construct: Expressed in HEK293T cells, purified by nickel chromatography; also called R131 FcγRIIa; not shown: 6xHis and GST tags of the pTT5 vector
T2 sequence (looked up): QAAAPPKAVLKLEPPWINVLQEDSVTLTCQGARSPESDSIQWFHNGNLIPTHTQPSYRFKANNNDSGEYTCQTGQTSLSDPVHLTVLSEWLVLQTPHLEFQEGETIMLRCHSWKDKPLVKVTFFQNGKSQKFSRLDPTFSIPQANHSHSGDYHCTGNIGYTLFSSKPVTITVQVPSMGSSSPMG

T3: human FcγRIIa (131H), His- and GST-tagged (human, UniProt P12318 34-217)
T3 construct: also called H131 FcγRIIa; HIIa; not shown: 6xHis and GST tags of the pTT5 vector
T3 sequence (looked up): T2 sequence (looked up) with R134H

B1: G236D/S239D/S267E (antibody, human IgG1, kappa)
heavy: EVQLVESGGGLVKPGGSLKLSCAASGYTFTSYVMHWVRQAPGKGLEWIGYINPYNDGTKYNEKFQGRVTISSDKSISTAYMELSSLRSEDTAMYYCARGTYYYGTRVFDYWGQGTLVTVSSASTKGPSVFPLAPSSKSTSGGTAALGCLVKDYFPEPVTVSWNSGALTSGVHTFPAVLQSSGLYSLSSVVTVPSSSLGTQTYICNVNHKPSNTKVDKKVEPKSCDKTHTCPPCPAPELLDGPDVFLFPPKPKDTLMISRTPEVTCVVVDVEHEDPEVKFNWYVDGVEVHNAKTKPREEQYNSTYRVVSVLTVLHQDWLNGKEYKCKVSNKALPAPIEKTISKAKGQPREPQVYTLPPSREEMTKNQVSLTCLVKGFYPSDIAVEWESNGQPENNYKTTPPVLDSDGSFFLYSKLTVDKSRWQQGNVFSCSVMHEALHNHYTQKSLSLSPGK
light: DIVMTQSPATLSLSPGERATLSCRSSKSLQNVNGNTYLYWFQQKPGQSPQLLIYRMSNLNSGVPDRFSGSGSGTEFTLTISSLEPEDFAVYYCMQHLEYPITFGAGTKLEIKRTVAAPSVFIFPPSDEQLKSGTASVVCLLNNFYPREAKVQWKVDNALQSGNSQESVTEQDSKDSTYSLSSTLTLSKADYEKHKVYACEVTHQGLSSPVTKSFNRGEC
notes: HuAM4G7 anti-CD19 IgG1 (m1) with these Fc substitutions, EU index; copies: 2 + 2
B2: L235Y/S239D/S267E (antibody, human IgG1, kappa)
heavy: B1 heavy with L239Y, D240G
light: B1 light
notes: as for B1
B3: L235Y/S267E/H268E (antibody, human IgG1, kappa)
heavy: B1 heavy with L239Y, D240G, D243S, H272E
light: B1 light
notes: as for B1
B4: L235Y/G236D/S267E (antibody, human IgG1, kappa)
heavy: B1 heavy with L239Y, D243S
light: B1 light
notes: as for B1
B5: L234E/S267E (antibody, human IgG1, kappa)
heavy: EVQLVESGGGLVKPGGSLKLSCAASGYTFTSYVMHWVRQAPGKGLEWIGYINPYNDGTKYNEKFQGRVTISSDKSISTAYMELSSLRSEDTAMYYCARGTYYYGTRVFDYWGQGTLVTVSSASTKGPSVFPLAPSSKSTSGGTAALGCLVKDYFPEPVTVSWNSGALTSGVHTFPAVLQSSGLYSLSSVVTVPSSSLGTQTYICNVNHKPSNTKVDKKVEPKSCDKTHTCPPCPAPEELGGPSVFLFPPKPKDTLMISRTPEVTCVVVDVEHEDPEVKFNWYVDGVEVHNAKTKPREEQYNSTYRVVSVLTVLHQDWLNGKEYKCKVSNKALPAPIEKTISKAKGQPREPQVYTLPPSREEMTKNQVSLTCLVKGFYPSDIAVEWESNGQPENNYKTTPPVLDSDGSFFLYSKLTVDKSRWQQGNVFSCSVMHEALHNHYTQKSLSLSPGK
light: B1 light
notes: as for B1
B6: G236D/S267E/H268E (antibody, human IgG1, kappa)
heavy: B1 heavy with D243S, H272E
light: B1 light
notes: as for B1
B7: L235D/S267E/L328F (antibody, human IgG1, kappa)
heavy: B1 heavy with L239D, D240G, D243S, L332F
light: B1 light
notes: as for B1
B8: L234F/S267E (antibody, human IgG1, kappa)
heavy: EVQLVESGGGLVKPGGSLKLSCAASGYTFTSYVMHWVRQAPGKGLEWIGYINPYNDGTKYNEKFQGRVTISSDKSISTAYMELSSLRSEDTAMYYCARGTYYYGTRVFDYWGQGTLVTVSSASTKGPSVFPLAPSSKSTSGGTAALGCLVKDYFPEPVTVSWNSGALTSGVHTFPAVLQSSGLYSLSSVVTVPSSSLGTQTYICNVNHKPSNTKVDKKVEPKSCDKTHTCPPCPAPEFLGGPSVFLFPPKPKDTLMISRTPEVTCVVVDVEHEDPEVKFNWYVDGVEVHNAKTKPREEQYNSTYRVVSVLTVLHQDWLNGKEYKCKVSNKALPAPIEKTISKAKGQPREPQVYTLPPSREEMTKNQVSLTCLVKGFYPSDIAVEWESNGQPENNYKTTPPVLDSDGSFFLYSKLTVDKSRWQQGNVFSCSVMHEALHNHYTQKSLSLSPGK
light: B1 light
notes: as for B1
B9: L235I (antibody, human IgG1, kappa)
heavy: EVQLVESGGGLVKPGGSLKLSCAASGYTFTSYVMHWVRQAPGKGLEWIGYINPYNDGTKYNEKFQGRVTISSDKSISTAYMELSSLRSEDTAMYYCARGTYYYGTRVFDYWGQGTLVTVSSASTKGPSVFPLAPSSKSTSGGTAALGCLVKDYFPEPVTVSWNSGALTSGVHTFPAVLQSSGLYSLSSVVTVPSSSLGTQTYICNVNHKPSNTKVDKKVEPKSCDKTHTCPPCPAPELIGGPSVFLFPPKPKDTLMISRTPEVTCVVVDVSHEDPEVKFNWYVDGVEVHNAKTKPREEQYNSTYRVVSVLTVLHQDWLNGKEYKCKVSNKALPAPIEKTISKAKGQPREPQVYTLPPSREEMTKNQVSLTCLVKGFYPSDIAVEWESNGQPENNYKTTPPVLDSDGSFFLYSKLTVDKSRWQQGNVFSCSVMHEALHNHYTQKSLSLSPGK
light: B1 light
notes: HuAM4G7 anti-CD19 IgG1 (m1) with this Fc substitution, EU index; copies: 2 + 2
B10: L234E/S267E/L328F (antibody, human IgG1, kappa)
heavy: B1 heavy with L238E, D240G, D243S, L332F
light: B1 light
notes: as for B1
B11: G237D/S267E (antibody, human IgG1, kappa)
heavy: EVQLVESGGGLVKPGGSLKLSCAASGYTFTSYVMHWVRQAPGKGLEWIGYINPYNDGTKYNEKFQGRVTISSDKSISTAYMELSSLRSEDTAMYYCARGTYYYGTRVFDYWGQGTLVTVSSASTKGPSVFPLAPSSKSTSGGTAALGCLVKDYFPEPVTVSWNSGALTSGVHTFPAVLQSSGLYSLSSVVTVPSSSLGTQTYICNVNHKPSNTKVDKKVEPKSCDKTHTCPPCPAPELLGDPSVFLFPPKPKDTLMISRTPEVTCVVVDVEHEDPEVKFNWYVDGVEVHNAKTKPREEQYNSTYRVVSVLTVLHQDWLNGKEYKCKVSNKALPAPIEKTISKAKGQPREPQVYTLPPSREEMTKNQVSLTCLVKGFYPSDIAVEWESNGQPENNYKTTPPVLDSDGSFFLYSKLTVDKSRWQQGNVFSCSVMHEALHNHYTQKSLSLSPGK
light: B1 light
notes: as for B1
B12: G236T (antibody, human IgG1, kappa)
heavy: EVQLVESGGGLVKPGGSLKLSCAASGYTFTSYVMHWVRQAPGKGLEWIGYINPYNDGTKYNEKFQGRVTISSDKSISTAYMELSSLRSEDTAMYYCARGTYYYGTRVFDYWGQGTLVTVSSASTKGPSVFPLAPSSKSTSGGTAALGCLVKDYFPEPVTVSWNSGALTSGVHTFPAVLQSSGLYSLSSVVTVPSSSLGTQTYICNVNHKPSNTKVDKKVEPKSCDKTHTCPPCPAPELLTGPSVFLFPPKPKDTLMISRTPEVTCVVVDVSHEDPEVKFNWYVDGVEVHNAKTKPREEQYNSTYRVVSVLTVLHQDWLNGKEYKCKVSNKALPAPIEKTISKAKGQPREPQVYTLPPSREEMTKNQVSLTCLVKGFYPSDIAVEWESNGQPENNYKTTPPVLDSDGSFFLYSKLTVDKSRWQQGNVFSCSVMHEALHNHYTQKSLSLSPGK
light: B1 light
notes: as for B9
B13: G236D/S267E/L328F (antibody, human IgG1, kappa)
heavy: B1 heavy with D243S, L332F
light: B1 light
notes: as for B1
B14: L235D/S267E (antibody, human IgG1, kappa)
heavy: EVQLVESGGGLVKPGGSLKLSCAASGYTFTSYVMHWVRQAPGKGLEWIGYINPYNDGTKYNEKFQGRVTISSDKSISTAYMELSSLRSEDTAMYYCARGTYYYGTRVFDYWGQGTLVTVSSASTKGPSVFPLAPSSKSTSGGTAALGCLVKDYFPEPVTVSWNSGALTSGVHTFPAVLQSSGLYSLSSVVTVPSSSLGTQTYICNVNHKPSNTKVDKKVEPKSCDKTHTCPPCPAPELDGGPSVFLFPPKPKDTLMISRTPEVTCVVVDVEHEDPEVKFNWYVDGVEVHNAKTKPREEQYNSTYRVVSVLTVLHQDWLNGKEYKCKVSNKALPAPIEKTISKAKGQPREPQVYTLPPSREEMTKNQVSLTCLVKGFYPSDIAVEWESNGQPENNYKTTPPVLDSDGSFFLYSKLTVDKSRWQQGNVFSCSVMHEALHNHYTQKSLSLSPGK
light: B1 light
notes: as for B1

target: T1, human FcγRIIb receptor protein (R&D …); test: SPR

Fold vs WT IgG1	Kd	Binder
84.8 fold	17.3 nM	B1
116 fold	12.6 nM	B2
69.9 fold	21 nM	B3
25 fold	58.7 nM	B4
15.1 fold	97 nM	B5
110 fold	13.4 nM	B6
80.4 fold	18.2 nM	B7
26.4 fold	55.7 nM	B8
0.908 fold	1620 nM	B9
195 fold	7.53 nM	B10
17 fold	86.1 nM	B11
0.00225 fold	652000 nM	B12
149 fold	9.87 nM	B13
16.7 fold	88.1 nM	B14

target: T4, human FcγRI receptor protein (R&D Systems) (human, UniProt P12314 16-288); test: SPR
T4 construct: also called soluble FcγRI; solFcγRI
T4 sequence (P12314 16-288 limits assumed): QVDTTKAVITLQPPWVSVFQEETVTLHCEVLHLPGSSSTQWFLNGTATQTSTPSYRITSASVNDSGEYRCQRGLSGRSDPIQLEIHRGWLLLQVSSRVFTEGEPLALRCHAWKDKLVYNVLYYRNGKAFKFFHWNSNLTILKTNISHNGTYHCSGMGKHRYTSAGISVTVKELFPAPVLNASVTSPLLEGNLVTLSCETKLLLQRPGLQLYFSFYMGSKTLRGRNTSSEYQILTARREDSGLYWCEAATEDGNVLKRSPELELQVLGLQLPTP

Fold vs WT IgG1	Kd	binding result	Binder
0.0685 fold	4.81 nM		B1
1.07 fold	0.307 nM		B2
0.0103 fold	32.1 nM		B3
		no binding	B4
0.131 fold	2.51 nM		B5
0.0902 fold	3.65 nM		B6
0.00057 fold	573 nM		B7
0.661 fold	0.498 nM		B8
0.0197 fold	16.7 nM		B9
0.0425 fold	7.75 nM		B10
0.0874 fold	3.77 nM		B11
0.0157 fold	21 nM		B12
0.0736 fold	4.48 nM		B13
0.00039 fold	854 nM		B14

target: T2, human FcγRIIa (131R), His- and …; test: SPR

Fold vs WT IgG1	Kd	Binder
26.7 fold	32.2 nM	B1
98.9 fold	8.68 nM	B2
48.2 fold	17.8 nM	B3
9.67 fold	88.8 nM	B4
10.7 fold	80.4 nM	B5
29.9 fold	28.7 nM	B6
133 fold	6.45 nM	B7
20.7 fold	41.6 nM	B8
0.666 fold	1290 nM	B9
174 fold	4.93 nM	B10
13.6 fold	63.1 nM	B11
0.35 fold	2460 nM	B12
59.9 fold	14.3 nM	B13
13 fold	66.1 nM	B14

target: T3, human FcγRIIa (131H), His- and …; test: SPR

Fold vs WT IgG1	Kd	binding result	Binder
0.217 fold	2980 nM		B1
1.05 fold	617 nM		B2
0.157 fold	4130 nM		B3
		no binding	B4
		no binding	B5
0.103 fold	6300 nM		B6
0.275 fold	2350 nM		B7
0.509 fold	1270 nM		B8
0.181 fold	3580 nM		B9
0.0725 fold	8920 nM		B10
		no binding	B11
0.486 fold	1330 nM		B12
0.0301 fold	21500 nM		B13
		no binding	B14

target: T5, human FcγRIIIa (158V), His- and GST-tagged (human, UniProt P08637 17-208); test: SPR
T5 construct: also called V158 FcγRIIIa; VIIIa; not shown: 6xHis and GST tags of the pTT5 vector
T5 sequence (P08637 17-208 F176V): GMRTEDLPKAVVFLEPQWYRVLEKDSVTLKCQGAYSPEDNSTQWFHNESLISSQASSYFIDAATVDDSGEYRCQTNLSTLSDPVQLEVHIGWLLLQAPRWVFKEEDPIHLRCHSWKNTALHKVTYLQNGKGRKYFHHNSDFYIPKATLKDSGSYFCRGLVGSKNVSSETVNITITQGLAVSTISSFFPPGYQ

binding result	Fold vs WT IgG1	Kd	Binder
no binding			B1
	2.6 fold	73.5 nM	B2
	0.428 fold	447 nM	B3
no binding			B4
no binding			B5
no binding			B6
no binding			B7
	0.0938 fold	2040 nM	B8
	0.903 fold	212 nM	B9
no binding			B10
no binding			B11
no binding			B12
no binding			B13
no binding			B14
